Drawing on publication PMC7306997, this text covers percentage of coincidence of ThT and AF647-DesAb-O signals, Kd and stoichiometry N (DesAb-O per Aβ42 monomer) for one substance.

By Kd is commonly meant the concentration at which binding is half-saturated.

The target of assay [1] is Aβ42 oligomers formed during the in vitro aggregation of Aβ42 (M1–42) (UniProt P05067). Nature of the assay: TIRF single-molecule colocalisation imaging.
The next assay concerns the target Aβ42 amyloid fibrils (UniProt P05067). Nature of the assay: microfluidic diffusional sizing.

Substance AF647-labeled DesAb-O (antibody) returned a percentage of coincidence of ThT and AF647-DesAb-O signals in assay [1] below 45%. In addition, in the assay with Aβ42 amyloid fibrils, the Kd turned out to be 1000 nM and the stoichiometry N (DesAb-O per Aβ42 monomer) worked out at 0.005.
